In patent US20250191685:

Test system: KLF6 RTF CDKN1C #200, 8 phosphate-contact R to Q 8 phosphate-contacting Arg to Gln (Homo sapiens)
Experiment: cell_activity
Details: on-target activity reduced by only 12%; only CDKN1C upregulated in RNA-seq

CDKN1C promoter site #200
binding signal (% of unmodified): 88
